From patent publication US10919953 (dated 2021)
Read-outs that look alike come from different tables or passages of the source.

T1: FcgRIa (human, UniProt P12314)
T1 chain: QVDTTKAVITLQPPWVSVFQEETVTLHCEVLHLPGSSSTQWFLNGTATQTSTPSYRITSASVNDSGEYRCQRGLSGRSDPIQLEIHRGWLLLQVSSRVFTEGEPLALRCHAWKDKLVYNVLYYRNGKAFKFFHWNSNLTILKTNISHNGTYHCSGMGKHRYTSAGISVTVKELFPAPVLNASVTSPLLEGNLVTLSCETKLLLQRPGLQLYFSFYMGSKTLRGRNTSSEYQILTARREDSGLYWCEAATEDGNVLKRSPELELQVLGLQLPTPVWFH

T2: FcgRIIaR (human, UniProt P12318)
T2 chain: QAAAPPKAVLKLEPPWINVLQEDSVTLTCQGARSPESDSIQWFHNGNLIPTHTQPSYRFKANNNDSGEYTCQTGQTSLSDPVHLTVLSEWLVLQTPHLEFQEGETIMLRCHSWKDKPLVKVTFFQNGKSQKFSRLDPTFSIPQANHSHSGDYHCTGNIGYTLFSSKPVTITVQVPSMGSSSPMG

T3: FcgRIIb (human, UniProt P31994)
T3 chain: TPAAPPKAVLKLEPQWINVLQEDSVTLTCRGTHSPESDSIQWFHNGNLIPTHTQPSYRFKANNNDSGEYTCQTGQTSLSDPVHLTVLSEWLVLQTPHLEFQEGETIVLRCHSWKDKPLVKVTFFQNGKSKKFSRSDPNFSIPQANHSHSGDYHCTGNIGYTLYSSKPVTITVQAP

T4: FcgRIIaH (human, UniProt P12318)
T4 chain: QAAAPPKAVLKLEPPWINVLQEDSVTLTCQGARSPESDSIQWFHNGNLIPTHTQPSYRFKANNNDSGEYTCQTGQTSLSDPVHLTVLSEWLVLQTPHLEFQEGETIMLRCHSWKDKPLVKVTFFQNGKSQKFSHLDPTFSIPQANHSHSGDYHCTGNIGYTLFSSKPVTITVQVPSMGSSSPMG


Legend:
Experiment in all cases: SPR
[1] = target: T1, FcgRIa
[2] = target: T2, FcgRIIaR
[3] = target: T3, FcgRIIb
[4] = target: T1, FcgRIa
[5] = target: T4, FcgRIIaH
[6] = target: T2, FcgRIIaR
[7] = target: T3, FcgRIIb

Binder | Kd [1] | Kd [2] | Kd [3] | Kd [4] | Kd [5] | Kd [6] | Kd [7]
IL6R-AP002/IL6R-BP256/IL6R-L (antibody) chain 1: QVQLQESGPGLVKPSETLSLTCAVSGHSISHDHAWSWVRQPPGEGLEWIGFISYSGITNYNPSLQGRVTISRDNSKNTLYLQMNSLRAEDTAVYYCARSLARTTAMDYWGEGTLVTVSSASTKGPSVFPLAPSSKSTSGGTAALGCLVKDYFPEPVTVSWNSGALTSGVHTFPAVLQSSGLYSLSSVVTVPSSSLGTQTYICNVNHKPSNTKVDKKVEPKSCDKTHTCPPCPAPDLLGDDSVFLFPPKPKDTLMISRTPEVTCVVVDVSDEDGEVKFNWYVDGVEVHNAKTKPREEQYNSTYRVVSVLTVLHQDWLNGKEYKCKVSNKALPRPIEKTISKAKGQPREPQVYTLPPSRKELTKNQVSLTCLVKGFYPSDIAVEWESNGQPENNYKTTPPVLDSDGSFFLYSKLTVDKSRWQQGNVFSCSVMHEALHNRYTQKSLSLSP chain 2: QVQLQESGPGLVKPSETLSLTCAVSGHSISHDHAWSWVRQPPGEGLEWIGFISYSGITNYNPSLQGRVTISRDNSKNTLYLQMNSLRAEDTAVYYCARSLARTTAMDYWGEGTLVTVSSASTKGPDVFPLAPSSKSTSGGTAALGCLVKDYFPEPVTVSWNSGALTSGVHTFPAVLQSSGLYSLSSVVTVPSSSLGTQTYICNVNHKPSNTKVDKKVEPKSCDKTHTCPPCPAPDLLGDDSVFLFPPKPKDTLMISRTPEVTCVVVDVSDEDGEVKFNWYVDGVEVHNAKTKPREEQYNSTYRVVSVLTVLHQDWLNGKEYKCKVSNKALPRPIEKTISKAKGQPREPQVYTLPPSRDELTKNQVSLTCLVKGFYPSDIAVEWESNGQPENNYKTTPPVLDSDGSFFLYSKLTVDKSRWQQGNVFSCSVMHEALHNHYTQESLSLSP chain 3: not shown | – | – | – | 3.6 nM | 4200 nM | 140 nM | 4.1 nM
IL6R-AP002/IL6R-BP257/IL6R-L (antibody) chain 1: QVQLQESGPGLVKPSETLSLTCAVSGHSISHDHAWSWVRQPPGEGLEWIGFISYSGITNYNPSLQGRVTISRDNSKNTLYLQMNSLRAEDTAVYYCARSLARTTAMDYWGEGTLVTVSSASTKGPSVFPLAPSSKSTSGGTAALGCLVKDYFPEPVTVSWNSGALTSGVHTFPAVLQSSGLYSLSSVVTVPSSSLGTQTYICNVNHKPSNTKVDKKVEPKSCDKTHTCPPCPAPDLLGDDSVFLFPPKPKDTLMISRTPEVTCVVVDVSDEDGEVKFNWYVDGVEVHNAKTKPREEQYNSTYRVVSVLTVLHQDWLNGKEYKCKVSNKALPRPIEKTISKAKGQPREPQVYTLPPSRKELTKNQVSLTCLVKGFYPSDIAVEWESNGQPENNYKTTPPVLDSDGSFFLYSKLTVDKSRWQQGNVFSCSVMHEALHNRYTQKSLSLSP chain 2: QVQLQESGPGLVKPSETLSLTCAVSGHSISHDHAWSWVRQPPGEGLEWIGFISYSGITNYNPSLQGRVTISRDNSKNTLYLQMNSLRAEDTAVYYCARSLARTTAMDYWGEGTLVTVSSASTKGPEVFPLAPSSKSTSGGTAALGCLVKDYFPEPVTVSWNSGALTSGVHTFPAVLQSSGLYSLSSVVTVPSSSLGTQTYICNVNHKPSNTKVDKKVEPKSCDKTHTCPPCPAPDLLGDDSVFLFPPKPKDTLMISRTPEVTCVVVDVSDEDGEVKFNWYVDGVEVHNAKTKPREEQYNSTYRVVSVLTVLHQDWLNGKEYKCKVSNKALPRPIEKTISKAKGQPREPQVYTLPPSRDELTKNQVSLTCLVKGFYPSDIAVEWESNGQPENNYKTTPPVLDSDGSFFLYSKLTVDKSRWQQGNVFSCSVMHEALHNHYTQESLSLSP chain 3: not shown | – | – | – | 1.9 nM | 4900 nM | 130 nM | 4.7 nM
IL6R-AP009/IL6R-BP259/IL6R-L (antibody) chain 1: QVQLQESGPGLVKPSETLSLTCAVSGHSISHDHAWSWVRQPPGEGLEWIGFISYSGITNYNPSLQGRVTISRDNSKNTLYLQMNSLRAEDTAVYYCARSLARTTAMDYWGEGTLVTVSSASTKGPSVFPLAPSSKSTSGGTAALGCLVKDYFPEPVTVSWNSGALTSGVHTFPAVLQSSGLYSLSSVVTVPSSSLGTQTYICNVNHKPSNTKVDKKVEPKSCDKTHTCPPCPAPDLLGDDSVFLFPPKPKDTLMISRTPEVTCVVVDVSDEDGEVKFNWYVDGVEVHNAKTKPREEQDNSTYRVVSVLTVLHQDWLNGKEYKCKVSNKALPRPIEKTISKAKGQPREPQVYTLPPSRKELTKNQVSLTCLVKGFYPSDIAVEWESNGQPENNYKTTPPVLDSDGSFFLYSKLTVDKSRWQQGNVFSCSVMHEALHNRYTQKSLSLSP chain 2: QVQLQESGPGLVKPSETLSLTCAVSGHSISHDHAWSWVRQPPGEGLEWIGFISYSGITNYNPSLQGRVTISRDNSKNTLYLQMNSLRAEDTAVYYCARSLARTTAMDYWGEGTLVTVSSASTKGPDVFPLAPSSKSTSGGTAALGCLVKDYFPEPVTVSWNSGALTSGVHTFPAVLQSSGLYSLSSVVTVPSSSLGTQTYICNVNHKPSNTKVDKKVEPKSCDKTHTCPPCPAPDLLGDDSVFLFPPKPKDTLMISRTPEVTCVVVDVSDEDGEVKFNWYVDGVEVHNAKTKPREEQDNSTYRVVSVLTVLHQDWLNGKEYKCKVSNKALPRPIEKTISKAKGQPREPQVYTLPPSRDELTKNQVSLTCLVKGFYPSDIAVEWESNGQPENNYKTTPPVLDSDGSFFLYSKLTVDKSRWQQGNVFSCSVMHEALHNHYTQESLSLSP chain 3: not shown | – | – | – | 3.5 nM | 6600 nM | 190 nM | 3.9 nM

Next, values leading:

Kd [1] | Kd [2] | Kd [3] | Kd [4] | Kd [5] | Kd [6] | Kd [7] | Binder
9.6 nM | 690 nM | 58 nM | – | – | – | – | IL6R-BP300/IL6R-L (antibody) chain 1: QVQLQESGPGLVKPSETLSLTCAVSGHSISHDHAWSWVRQPPGEGLEWIGFISYSGITNYNPSLQGRVTISRDNSKNTLYLQMNSLRAEDTAVYYCARSLARTTAMDYWGEGTLVTVSSASTKGPSVFPLAPSSKSTSGGTAALGCLVKDYFPEPVTVSWNSGALTSGVHTFPAVLQSSGLYSLSSVVTVPSSSLGTQTYICNVNHKPSNTKVDKKVEPKSCDKTHTCPPCPAPDLLGDDSVFLFPPKPKDTLMISRTPEVTCIVVDVSEEDGEVKFNWYVDGVEVHNAKTKPREEQYNSTYRVVSVLTVLHQDWLNGKEYKCKVSNKALPAPIEKTISKAKGQPREPQVYTLPPSRDELTKNQVSLTCLVKGFYPSDIAVEWESNGQPENNYKTTPPVLDSDGSFFLYSKLTVDKSRWQQGNVFSCSVMHEALHNHYTQESLSLSP chain 2: not shown
4.6 nM | 1400 nM | 130 nM | – | – | – | – | IL6R-BP339/IL6R-L (antibody) chain 1: QVQLQESGPGLVKPSETLSLTCAVSGHSISHDHAWSWVRQPPGEGLEWIGFISYSGITNYNPSLQGRVTISRDNSKNTLYLQMNSLRAEDTAVYYCARSLARTTAMDYWGEGTLVTVSSASTKGPSVFPLAPSSKSTSGGTAALGCLVKDYFPEPVTVSWNSGALTSGVHTFPAVLQSSGLYSLSSVVTVPSSSLGTQTYICNVNHKPSNTKVDKKVEPKSCDKTHTCPPCPAPDLLGDDSVFLFPPKPKDTLMISRTPEVTCVVMDVSEEDGEVKFNWYVDGVEVHNAKTKPREEQYNSTYRVVSVLTVLHQDWLNGKEYKCKVSNKALPAPIEKTISKAKGQPREPQVYTLPPSRDELTKNQVSLTCLVKGFYPSDIAVEWESNGQPENNYKTTPPVLDSDGSFFLYSKLTVDKSRWQQGNVFSCSVMHEALHNHYTQESLSLSP chain 2: not shown
– | – | – | 1.7 nM | 5400 nM | 140 nM | 4.2 nM | IL6R-AP009/IL6R-BP260/IL6R-L (antibody) chain 1: QVQLQESGPGLVKPSETLSLTCAVSGHSISHDHAWSWVRQPPGEGLEWIGFISYSGITNYNPSLQGRVTISRDNSKNTLYLQMNSLRAEDTAVYYCARSLARTTAMDYWGEGTLVTVSSASTKGPSVFPLAPSSKSTSGGTAALGCLVKDYFPEPVTVSWNSGALTSGVHTFPAVLQSSGLYSLSSVVTVPSSSLGTQTYICNVNHKPSNTKVDKKVEPKSCDKTHTCPPCPAPDLLGDDSVFLFPPKPKDTLMISRTPEVTCVVVDVSDEDGEVKFNWYVDGVEVHNAKTKPREEQDNSTYRVVSVLTVLHQDWLNGKEYKCKVSNKALPRPIEKTISKAKGQPREPQVYTLPPSRKELTKNQVSLTCLVKGFYPSDIAVEWESNGQPENNYKTTPPVLDSDGSFFLYSKLTVDKSRWQQGNVFSCSVMHEALHNRYTQKSLSLSP chain 2: QVQLQESGPGLVKPSETLSLTCAVSGHSISHDHAWSWVRQPPGEGLEWIGFISYSGITNYNPSLQGRVTISRDNSKNTLYLQMNSLRAEDTAVYYCARSLARTTAMDYWGEGTLVTVSSASTKGPEVFPLAPSSKSTSGGTAALGCLVKDYFPEPVTVSWNSGALTSGVHTFPAVLQSSGLYSLSSVVTVPSSSLGTQTYICNVNHKPSNTKVDKKVEPKSCDKTHTCPPCPAPDLLGDDSVFLFPPKPKDTLMISRTPEVTCVVVDVSDEDGEVKFNWYVDGVEVHNAKTKPREEQDNSTYRVVSVLTVLHQDWLNGKEYKCKVSNKALPRPIEKTISKAKGQPREPQVYTLPPSRDELTKNQVSLTCLVKGFYPSDIAVEWESNGQPENNYKTTPPVLDSDGSFFLYSKLTVDKSRWQQGNVFSCSVMHEALHNHYTQESLSLSP chain 3: not shown
